{"source": "patent US20150004637A1", "about": "“SYSTEMS AND METHODS FOR IMAGING AT HIGH SPATIAL AND/OR TEMPORAL PRECISION” (President and Fellows of Harvard College, priority 2011, published 2015)", "molecules": {"B1": {"name": "Archaerhodopsin 3 (protein)", "chain": "MDPIALQAGYDLLGDGRPETLWLGIGTLLMLIGTFYFLVRGWGVTDKDAREYYAVTILVPGIASAAYLSMFFGIGLTEVTVGGEMLDIYYARYADWLFTTPLLLLDLALLAKVDRVTIGTLVGVDALMIVTGLIGALSHTAIARYSWWLFSTICMIVVLYFLATSLRSAAKERGPEVASTFNTLTALVLVLWTAYPILWIIGTEGAGVVGLGIETLLFMVLDVTAKVGFGFILLRSRAILGDTEAPEPSAGADVSAAD", "modifications": "Halorubrum sodomense", "notes": "Microbial rhodopsin from Halorubrum sodomense, light-driven proton pump used as fluorescent voltage indicator; experiments used an Arch-eGFP fusion"}, "B2": {"name": "Arch D95N: Archaerhodopsin 3 with aspartic acid 95 mutated to asparagine; non-pumping voltage indicator (protein, UniProt P96787 7-258, looked up, variant D95N)", "Archaerhodopsin-3": "QAGYDLLGDGRPETLWLGIGTLLMLIGTFYFLVRGWGVTDKDAREYYAVTILVPGIASAAYLSMFFGIGLTEVTVGGEMLDIYYARYANWLFTTPLLLLDLALLAKVDRVTIGTLVGVDALMIVTGLIGALSHTAIARYSWWLFSTICMIVVLYFLATSLRSAAKERGPEVASTFNTLTALVLVLWTAYPILWIIGTEGAGVVGLGIETLLFMVLDVTAKVGFGFILLRSRAILGDTEAPEPSAGADVSAAD"}}, "key": {"[1]": {"assay": "Spectroscopic characterization of Arch WT and D95N (absorption, emission, extinction, quantum yield)", "type": "physicochemical", "conditions": "for λmax em: Excitation at λ=532 nm; for ε633: assuming same peak extinction coefficient as Bacteriorhodopsin, 63,000 M^−1 cm^−1; for QY (fluorescence quantum yield): comparison to Alexa 647, excitation at λ=633 nm; for λmax abs: neutral pH", "description": "Arch and its D95N mutant were expressed in E. coli. Briefly, E. coli (strain BL21, pet28b plasmid) was grown in 1 L of LB with 100 micrograms/mL kanamycin, to an O.D 600 of 0.4 at 37° C. All-trans retinal (5 micromolar) and inducer (IPTG 0.5 mM) were added and cells were grown for an additional 3.5 hours in the dark. Cells were harvested by centrifugation and resuspended in 50 mM Tris, 2 mM MgCl2 at pH 7.3 and lysed with a tip sonicator for 5 minutes. The lysate was centrifuged and the pellet was resuspended in PBS supplemented with 1.5% dodecyl maltoside (DM). The mixture was homogenized with a glass/Teflon Potter Elvehjem homogenizer and centrifuged again. The solubilized protein in the supernatant was used for experiments.\n(§1) (2) Spectroscopic characterization of Arch WT and D95N. The absorption spectra of fractionated E. coli membranes containing Arch WT and D95N were determined using an Ocean Optics USB4000 spectrometer with a DT-MINI-2-GS light source (FIG. 8). The peak extinction coefficients of microbial rhodopsins vary across rhodopsin types from 48,000 to 63,000 M^−1 cm^−1. Due to the high homology between Arch and bacteriorhodopsin (BR), the BR extinction coefficient, 63,000 M^−1 cm^−1, was used for Arch. […] For Arch WT, 633 nm was in the tail of the absorption while for Arch D95N 633 nm lay halfway down the shoulder. The relative extinction coefficients of Arch WT and D95N at 633 nm was independent of the choice to use BR as the reference for the peak extinction coefficient. Absorption spectra for Arch WT and D95N were measured as a function of pH between pH 6 and 11.\nThe fluorescence emission spectra of Arch WT and D95N were determined using illumination with a 100 mW, 532 nm laser (Dragon Lasers, 532GLM100) or a 25 mW, 633 nm HeNe laser (Spectra-Physics) (FIG. 8). Scattered laser light was blocked with a 532 nm Raman notch filter (Omega Optical, XR03) or a 710/100 emission filter (Chroma), and fluorescence was collected perpendicular to the illumination with a 1000 micron fiber, which passed the light to an Ocean Optics QE65000 spectrometer. Spectra were integrated for 2 seconds. Arch WT and D95N both had emission maxima at 687 nm.\nThe fluorescence quantum yields of Arch WT and D95N were determined by comparing the integrated emission intensity to emission of a sample of the dye Alexa 647. Briefly, the concentrations of micromolar solutions of dye and protein were determined using a visible absorption spectrum. The extinction coefficients of 270,000 M^−1cm^−1 for Alexa 647 and 63,000 M^−1 cm^−1 for Arch WT and D95N were used, assuming that these microbial rhodopsins have the same extinction coefficient as bacteriorhodopsin. […] The fluorescence emission spectra of dye and protein samples were measured with 633 nm excitation. The quantum yield was then determined by the formula\nwhere Fl is the integrated fluorescence from 660 to 760 nm, epsilon (∈) is the extinction coefficient at 633 nm and c is the concentration."}, "[2]": {"assay": "pKa of the Schiff base from absorption spectra versus pH", "type": "physicochemical", "conditions": "singular value decomposition on absorption spectra, pH 6-11", "description": "FIG. 8C illustrates absorption spectra recorded on purified protein between about pH 6 and about pH 11. Singular Value Decomposition of absorption spectra between 400-750 nm was used to calculate the fraction of the SB in the protonated state as a function of pH. The result was fit to a Hill function to determine the pKa of the SB.\nas §1"}, "[3]": {"assay": "Relative photostability of Arch and eGFP (photobleaching of Arch-eGFP fusion)", "type": "physicochemical", "conditions": "measured in a 1:1 fusion with eGFP", "description": "(3) Relative photostability of Arch and eGFP. To perform a direct comparison of photostability of Arch and eGFP the photobleaching of the Arch-eGFP fusion was studied. This strategy guaranteed a 1:1 stoichiometry of the two fluorophores, simplifying the analysis. The experiments were performed on permeabilized cells, in the microscope, with video recording as the cells photobleached. A movie of photobleaching of Arch was first recorded under 640 nm illumination; then on the same field of view photobleaching of eGFP under 488 nm illumination was recorded, with illumination intensity adjusted to yield approximately the same initial count rate as for Arch. Fluorescence background levels were obtained from nearby protein-free regions of each movie and were subtracted from the intensity of the protein-containing regions. The area under each photobleaching timetrace was calculated, yielding an estimate of the total number of detected photons from each fluorophore. The eGFP emission (lambda-max=509 nm) and the Arch emission (lambda-max=687 nm) were collected through different emission filters, so the raw counts were corrected for the transmission spectra of the filters and the wavelength-dependent quantum yield of the EMCCD camera. The result was that the relative number of photons emitted prior to photobleaching for eGFP:Arch WT was 3.9:1, and for eGFP:ArchD95N this ratio was 10:1."}, "[4]": {"tested_on": "cultured rat hippocampal neurons", "assay": "Optical recording of action potentials in cultured neurons", "type": "cell-based", "description": "Arch was tested as a voltage indicator in cultured rat hippocampal neurons, using viral delivery (Methods 10-11). […] Individual spikes were accompanied by clearly identifiable increases of whole-field fluorescence (FIG. 11B). Preferentially weighting pixels whose intensity co-varied with the whole-field fluorescence led to an about 74% improvement in SNR (FIG. 11C). This training procedure made no use of the electrical recording. Training the pixel-weighting algorithm on the electrical recording led to a further 5% increase in SNR. (FIG. 11D).\n(11) Neuronal cell culture. E18 rat hippocampi were purchased from BrainBits and mechanically dissociated in the presence of 1 mg/mL papain (Worthington) before plating at 5,000 to 30,000 cells per dish on poly-L-lysine and Matrigel-coated (BD Biosciences) glass-bottom dishes. […] Cells were incubated in N+ medium (100 mL Neurobasal medium, 2 mL B27 supplement, 0.5 mM glutamine, 25 micromolar glutamate, penicillin-streptomycin) for 3 hours. An additional 300 microliter virus medium was added to the cells and incubated overnight, then brought to a final volume of 2 mL N+ medium. After two days, cells were fed with 1.5 mL N+ medium. Cells were fed with 1 mL N+ medium without glutamate at 4 DIV, and fed 1 mL every 3-4 days after. Cells were allowed to grow until 10-14 DIV. […]\nWhole-cell current clamp recordings were obtained from mature neurons under the same conditions used for HEK cells recordings. Series resistance and pipette capacitance were corrected. Only neurons having resting potentials between −50 and −70 mV were used in the analysis.\n(12) Spike sorting. A spike identification algorithm was developed that could be applied either to electrically recorded V(t) or to optically determined VFL(t). The input trace was convolved with a reference spike. Sections of the convolved waveform that crossed a user-defined threshold were identified as putative spikes. Multiple spikes that fell within 10 ms (a consequence of noise-induced glitches near threshold) were clustered and identified as one."}}, "note": "“Also recorded” adds a separate entry of the source."}
{"molecule": "B1", "values": [{"measurement": "λmax em", "setting": "[1]", "result": 687, "unit": "nm"}, {"measurement": "λmax em", "setting": "[1]; listed as Arch", "result": "≈ 687 nm"}, {"measurement": "ε633", "setting": "[1]", "result": "6,300 M^−1 cm^−1"}, {"measurement": "QY (fluorescence quantum yield)", "setting": "[1]", "result": "9 × 10^−4"}, {"measurement": "QY (fluorescence quantum yield)", "setting": "[1]; listed as Arch", "result": "about 9×10^−4"}, {"measurement": "λmax abs", "setting": "[1]", "result": 558, "unit": "nm"}, {"measurement": "pKa of SB", "setting": "[2]", "result": 10.1}, {"measurement": "Photostability relative to eGFP", "setting": "[3]", "result": 0.25}, {"measurement": "optical signal-to-noise ratio of single electrically triggered action potentials", "setting": "[4]", "result": "greater than 10"}, {"measurement": "increase in fluorescence after addition of supplemental retinal", "setting": "[4]; 10 μM retinal, over 30 minutes, neuron depolarized with CCCP", "result": "30-60%"}, {"measurement": "signal-to-noise ratio in the fluorescence (spike amplitude:baseline noise)", "setting": "[4]; 2 kHz frame rate, single trial", "result": "about 10.5"}, {"measurement": "light-induced outward photocurrent in neurons", "setting": "[4]; I=1800 W/cm^2, total internal reflection mode", "result": "about 10 pA"}, {"measurement": "shift of resting potential by photocurrent", "setting": "[4]; current-clamp, I=1800 W/cm^2", "result": "up to −20 mV"}, {"measurement": "false-positive rate of spike identification", "setting": "[4]; n=269 spikes", "result": 0.7, "unit": "%"}, {"measurement": "spikes correctly identified by spike-finding algorithm", "setting": "[4]; n=269 spikes, versus simultaneously recorded membrane potential", "result": 99.6, "unit": "%"}, {"measurement": "r.m.s. deviation between fluorescence and voltage", "setting": "[4]; pixel weights from correlation to electrophysiology data", "result": 4.0, "unit": "mV"}, {"measurement": "r.m.s. deviation of fluorescence from electrophysiology data", "setting": "[4]; pixel weights from correlation to whole-field intensity", "result": 4.2, "unit": "mV"}, {"measurement": "r.m.s. deviation of fluorescence from electrophysiology data", "setting": "[4]; whole-field fluorescence, single trial, 500 frames/s", "result": 7.3, "unit": "mV"}]}
{"molecule": "B2", "values": [{"measurement": "λmax em", "setting": "[1]", "result": 687, "unit": "nm"}, {"measurement": "ε633", "setting": "[1]", "result": "37,500 M^−1 cm^−1"}, {"measurement": "QY (fluorescence quantum yield)", "setting": "[1]", "result": "4 × 10^−4"}, {"measurement": "λmax abs", "setting": "[1]", "result": 585, "unit": "nm"}, {"measurement": "λmax abs", "setting": "[1]; listed as Arch^D95N", "result": "about 585 nm"}, {"measurement": "λmax abs", "setting": "[1]; listed as D95N", "result": 585, "unit": "nm"}, {"measurement": "pKa of SB", "setting": "[2]", "result": 8.9}, {"measurement": "Photostability relative to eGFP", "setting": "[3]", "result": 0.1}, {"measurement": "effect of illumination on membrane potential / spiking in neurons", "setting": "[4]; I=1800 W/cm^2, λ=640 nm", "result": "did not perturb membrane potential; also recorded: no effect of illumination on spiking or resting potential"}]}
